Experimental data from patent publication US20050215509.

T1: recombinant SCCA-1 with a polyhistidine tag (6x His), P29508
T1 chain: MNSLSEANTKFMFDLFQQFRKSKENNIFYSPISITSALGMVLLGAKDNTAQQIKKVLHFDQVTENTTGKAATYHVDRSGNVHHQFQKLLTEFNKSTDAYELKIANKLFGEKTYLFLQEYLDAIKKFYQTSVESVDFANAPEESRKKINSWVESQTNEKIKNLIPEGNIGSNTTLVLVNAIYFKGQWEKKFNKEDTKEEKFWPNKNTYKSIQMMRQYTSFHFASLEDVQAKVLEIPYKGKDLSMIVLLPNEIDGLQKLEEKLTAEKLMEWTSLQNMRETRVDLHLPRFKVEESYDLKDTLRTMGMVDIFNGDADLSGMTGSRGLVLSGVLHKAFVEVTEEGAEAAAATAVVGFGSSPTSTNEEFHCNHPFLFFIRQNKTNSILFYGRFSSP

B1: active recombinant phosphorylated JNK-1 (Cell Signaling) (protein)
chain: MSRSKRDNNFYSVEIGDSTFTVLKRYQNLKPIGSGAQGIVCAAYDAILERNVAIKKLSRPFQNQTHAKRAYRELVLMKCVNHKNIIGLLNVFTPQKSLEEFQDVYIVMELMDANLCQVIQMELDHERMSYLLYQMLCGIKHLHSAGIIHRDLKPSNIVVKSDCTLKILDFGLARTAGTSFMMTPYVVTRYYRAPEVILGMGYKENVDLWSVGCIMGEMVCHKILFPGRDYIDQWNKVIEQLGTPCPEFMKKLQPTVRTYVENRPKYAGYSFEKLFPDVLFPADSEHNKLKASQARDLLSKMLVIDASKRISVDEALQHPYINVWYDPSEAEAPPPKIPDKQLDEREHTIEEWKELIYKEVMDLEERTKNGVIRGQPSPLAQVQQ
B2: active recombinant phosphorylated JNK-2 (Cell Signaling) (protein)
chain: MSDSKCDSQFYSVQVADSTFTVLKRYQQLKPIGSGAQGIVCAAFDTVLGINVAVKKLSRPFQNQTHAKRAYRELVLLKCVNHKNIISLLNVFTPQKTLEEFQDVYLVMELMDANLCQVIHMELDHERMSYLLYQMLCGIKHLHSAGIIHRDLKPSNIVVKSDCTLKILDFGLARTACTNFMMTPYVVTRYYRAPEVILGMGYKENVDIWSVGCIMGELVKGCVIFQGTDHIDQWNKVIEQLGTPSAEFMKKLQPTVRNYVENRPKYPGIKFEELFPDWIFPSESERDKIKTSQARDLLSKMLVIDPDKRISVDEALRHPYITVWYDPAEAEAPPPQIYDAQLEEREHAIEEWKELIYKEVMDWEERSKNGVVKDQPSDAAVSSNATPSQSSSINDISSMSTEQTLASDTDSSLDASTGPLEGCR

Molecular target: T1, recombinant SCCA-1 with a polyhistidine …

Row | Protein | amount of phosphorylated c-Jun (in vitro pull-down JNK kinase assay on c-Jun fused protein beads, western blot with anti-phosphorylated c-Jun antibody)
1 | B1 | in the case of incubating SCCA-1 with active JNK-1, the amount of phosphorylated c-Jun decreased remarkably as compared with the control not containing SCCA-1
2 | B2 | in the case of incubating SCCA-1 with active JNK-2, there was no significant decrease in the amount of phosphorylated c-Jun observed as compared with the control
